Data from the RNAGym collection of RNA variant scans (doi:10.7554/elife.90254).

B1: OR4K15 (parent)
chain: GUUAACGGUCAUAGGCCAUGGAAACUAGGAGCACCAUUUCGCUGCCAGUGAAGAAAUGAACAAAGAAAAUCUGGGCCAGGCAGGCAUCAAAAGAAAUAGUCUUGCGCUCAACCAGAAAGUCUGUAAUCAUUUUAAGGGUA

Variants of: B1
Assay: self-cleavage, relative activity (ratio to wild type); higher = more cleavage; in vitro, sequencing; the parent is a self-cleaving ribozyme

Row | Variant | self-cleavage
1 | U122C G136U | 1.86
2 | A18G A140G | 0.55
3 | A52G A129U | 0.71
4 | U122A A134G | 0.73
5 | A5C A33U | 2.21
6 | C34U U103G | 0.04
7 | A18G U57G | 1.21
8 | A96C A116G | 0.33
9 | U49G U131C | 1.56
10 | U49A C107U | 0.04
11 | U19A U37C | 0.9
12 | G15C G73A | 0.17
13 | C25U | 1.3
14 | A96G U108G | 0.03
15 | G80A A114G | 0.05
16 | G31U A63G | 2.02
17 | A60G U139A | 1.12
18 | A92G A110G | 0.17
19 | U26C U132C | 0.52
20 | G15A | 0.92
21 | A51G A116G | 0.48
22 | A13G A89U | 1.09
23 | A22G U122C | 0.86
24 | C61U A64G | 1.63

Row | Variant | self-cleavage
25 | C71U A89G | 0.52
26 | U9A U72C | 0.16
27 | A30G U38G | 1.4
28 | U49A A66C | 1.48
29 | A18U U70C | 1.04
30 | A11G A23G | 1.1
31 | U103A A111G | 0.01
32 | G106A G136U | 0.04
33 | G7U A60G | 0.79
34 | U38A A116G | 0.81
35 | C32A G73U | 0.21
36 | A33G A54C | 0.95
37 | U2C A92G | 0.98
38 | U108C U130C | 0.01
39 | U72G A94G | 0.09
40 | U19C A23G | 0.88
41 | A30U A111G | 0.02
42 | U26C A91G | 1.26
43 | G28A A33G | 0.69
44 | A11G U100C | 1.06
45 | A62G U87A | 1.71
46 | A33G A114U | 0.02
47 | C6A A89U | 1.38
48 | G31A A54G | 1.21

Row | Variant | self-cleavage
49 | U9C U49C | 1.67
50 | A69G G79U | 0.1
51 | A23G A82C | 0.09
52 | A18G U102C | 1.64
53 | C46U U100C | 2.37
54 | U49C A55G | 1.22
55 | A55G A98U | 1.21
56 | A5C U100C | 1.25
57 | U19A U49A | 1.05
58 | A24G A52U | 0.64
59 | A24G U72C | 0.27
60 | G8A A47C | 1.67
61 | A98G U102A | 0.15
62 | U2C A95G | 1.53
63 | A11G G83A | 1.23
64 | C42U A118G | 0.7
65 | A30U U130C | 0.34
66 | G7U A91G | 0.72
67 | A51G A91G | 0.5
68 | A62U G104A | 0.04
69 | U70C C101U | 0.12
70 | G79A U87A | 0.11
71 | A95G A135U | 1.45
72 | A24G U120C | 0.35

Row | Variant | self-cleavage
73 | C121A U127C | 0.2
74 | A22U A23U | 1.59
75 | U100C G137A | 2.22
76 | A64C A94G | 2.25
77 | U43C A134U | 2.04
78 | A63U A90U | 1.93
79 | U39C A67U | 1.9
80 | A92U A110U | 1.74
81 | U39A A56G | 1.59
82 | A90G A126G | 0.95
83 | A64G U124C | 1.57
84 | A64U A94U | 1.63
85 | A64G A86U | 2.21
86 | A11C A27U | 1.24
87 | U108C A114U | 0.01
88 | A69G U100G | 1.94
89 | U2C U26C | 1.2
90 | A33U U70A | 0.33
91 | A95G A111C | 0.02
92 | G31A A51G | 1.64
93 | A59U A114C | 0.03
94 | U12C G28U | 0.66
95 | A96U U127C | 1.7
96 | A111G U124A | 0.02

Row | Variant | self-cleavage
97 | A23G A96G | 0.92
98 | A114U A140G | 0.08
99 | A18C A95G | 2.19
100 | A66G G80C | 0.12
101 | C34A U102A | 1.09
102 | U72C G84U | 0.35
103 | A95G A129U | 1.52
104 | U9A A60G | 0.57
105 | A24C U139C | 2.1
106 | A64U U72C | 0.34
107 | A89U G119A | 2.37
108 | A52G U57C | 1.1
109 | A66U U124C | 1.25
110 | A60G A68U | 1.38
111 | U2A U102A | 1.51
112 | A18U A55C | 1.22
113 | A67G U130C | 1.25
114 | A47G A59U | 1.56
115 | A47C A110C | 0.46
116 | A13U A129U | 0.73
117 | A36C A86U | 2.2
118 | A36C U38C | 1.43
119 | A11G A18U | 0.46
120 | U87A A94U | 1.52

Row | Variant | self-cleavage
121 | A66G U108C | 0.02
122 | A118G A129U | 0.61
123 | A63G U132C | 1.67
124 | A30U U103G | 0.03
125 | G75C U103A | 0.01
126 | U39A U102C | 1.55
127 | G14C A118G | 0.43
128 | U49C U70C | 0.59
129 | U103C U133C | 1.32
130 | G53A G136U | 2.03
131 | A27G A92C | 1.36
132 | A68G A96U | 2.13
133 | A18U U19C | 0.12
134 | G7U A86U | 1.63
135 | G53U U72A | 0.19
136 | U12C A90G | 0.97
137 | A91U A95G | 2.58
138 | A27G A89U | 2
139 | C35A A66G | 0.76
140 | U102C G123C | 1.33
141 | U2C A129G | 0.75
142 | A62G A91U | 1.61
143 | A13U A33C | 2.21
144 | U70A A125G | 0.44

Row | Variant | self-cleavage
145 | U108C U120A | 0.01
146 | U132C U133C | 1.1
147 | C42U U103A | 1.01
148 | U87C A111U | 0.07
149 | A126U G137A | 1.21
150 | A60C A117U | 0.56
151 | U120A U130C | 1.78
152 | U37A A60G | 1.14
153 | A13G A18U | 0.89
154 | U70C A91G | 0.6
155 | A23G U132C | 1.07
156 | A90G A114U | 0.02
157 | A68G U103C | 0.96
158 | U100A A134G | 0.37
159 | C85G A110G | 0.03
160 | U43C G83A | 1.59
161 | A95U U122C | 1.44
162 | A13G A126U | 0.88
163 | C61U C85U | 0.95
164 | A24G G136C | 1.47
165 | U26C G93U | 0.86
166 | U108A A111G | 0.01
167 | A22C A114U | 0.08
